The values below come from patent publication US20200199647A1, “ASSAY FOR SCREENING MODULATORS OF HOLOPHOSPHATASE ACTIVITY” (UNITED KINGDOM RESEARCH AND INNOVATION, priority 2017, published 2020).

The target in test [1] is P-eIF2α (human eIF2α amino acids 1-185 solubility mutant, C-terminal His6-tag, phosphorylated on Ser51) (human) (UniProt P05198). Put plainly: thermophoresis.
Target sequence in this assay (P05198 other isoform, or with tags, fused parts or gaps mutant): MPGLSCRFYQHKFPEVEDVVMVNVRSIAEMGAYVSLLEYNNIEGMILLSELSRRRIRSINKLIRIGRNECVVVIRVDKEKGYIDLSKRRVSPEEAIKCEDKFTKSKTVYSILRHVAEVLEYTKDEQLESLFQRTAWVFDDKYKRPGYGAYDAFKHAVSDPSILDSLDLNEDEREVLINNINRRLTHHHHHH
Test [2] shares this target. Put plainly: thermophoresis (MST), labelled P-eIF2α, unlabelled PP1c^D95A titrated.
In test [3] the target is PP1c (human PP1cα amino acids 7-330, N-terminal Thio6/His6 tag) (human) (UniProt P62136). Nature of the test: thermophoresis.
The target is the same in test [4]. Put plainly: thermophoresis (MST), labelled PP1c, unlabelled R15A titrated.
The target in test [5] is P-eIF2α (human eIF2α amino acids 1-185 solubility mutant, C-terminal His6-tag, phosphorylated on Ser51) (human) (UniProt P05198). Put plainly: thermophoresis (MST), labelled P-eIF2α with 10 µM R15B, unlabelled PP1c^D95A titrated.
Test [6] has the same target. Put plainly: thermophoresis (MST), labelled P-eIF2α with 10 µM R15A, unlabelled PP1c^D95A titrated.

PP1c (human PP1cα amino acids 7-330, N-terminal Thio6/His6 tag) (human), sequence (P62136 other isoform, or with tags, fused parts or gaps): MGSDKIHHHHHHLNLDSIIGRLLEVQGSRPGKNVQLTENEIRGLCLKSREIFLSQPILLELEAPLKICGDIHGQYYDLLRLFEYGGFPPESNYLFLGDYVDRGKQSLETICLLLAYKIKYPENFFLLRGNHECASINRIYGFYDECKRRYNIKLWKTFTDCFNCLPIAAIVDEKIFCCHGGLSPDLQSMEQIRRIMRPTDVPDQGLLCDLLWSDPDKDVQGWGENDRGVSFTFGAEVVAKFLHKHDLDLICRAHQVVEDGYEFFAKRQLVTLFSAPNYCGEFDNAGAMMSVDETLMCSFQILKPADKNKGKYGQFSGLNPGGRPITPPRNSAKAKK

Turning to “R15B^N (human PPP1R15B amino acids 340-635, N-terminal MBP-tag, C-terminal His6-tag) (from UniProt Q5SWA1 340-635)”, the dissociation constant Kd in test [1] worked out at 0.53 µM.

The substance “PP1c^D95A (human PP1cα amino acids 7-330, D95A, N-terminal Thio6/His6 tag) (from UniProt P62136 7-330) (enzyme)” came in with a Kd in test [2] of 0.65 µM.

As for “R15B (human PPP1R15B amino acids 340-698, N-terminal MBP-tag, C-terminal His6-tag) (from UniProt Q5SWA1 340-698)”, the equilibrium dissociation constant (Kd) in test [1] amounted to 0.55 µM.

In test [3], “R15A^C (human PPP1R15A amino acids 513-636, N-terminal MBP-tag, C-terminal His6-tag) (from UniProt O75807 513-636)” came in with a Kd of 0.19 µM.

Consider “R15A (human PPP1R15A amino acids 325-636, N-terminal MBP-tag, C-terminal His6-tag) (from UniProt O75807 325-636)”, for which the results for the equilibrium dissociation constant (Kd) in test [4] and in test [1] were 0.06 µM and 0.34 µM, respectively.

As for “R15B-PP1c^D95A holophosphatase complex (from UniProt P0AEX9 27-392; Q5SWA1 340-698; P62136 7-330)”, in test [5], the fold higher affinity than the isolated PP1c^D95A was 3 times.

For “R15A-PP1c^D95A holophosphatase complex (from UniProt O75807 325-636; P62136 7-330)”, the fold higher affinity than the isolated PP1c^D95A in test [6] is 5.4 times.

Regarding “R15A^N (human PPP1R15A amino acids 325-512, N-terminal MBP-tag, C-terminal His6-tag) (from UniProt O75807 325-512)”, the Kd in test [1] was determined as 0.44 µM.
